The target in the assay is T1, soluble human TLR3 extracellular domain (human, UniProt O15455 24-704).
T1 construct: extracellular domain; Coated on the ELISA plate; also called hTLR3; extracellular domain of human TLR3
Nature of the assay: ELISA, soluble human TLR3 extracellular domain coated on plate, antibody titrated, anti-mouse IgG-HRP detection. How it is done:
All 16 mAbs were assessed for binding to the extracellular domain of human TLR3 using an ELISA format as compared to the parental murine mAb C1068. Briefly, soluble human TLR3 extracellular domain was coated into the wells of a 96 well plate and candidate mAbs were incubated at various concentrations (10-3 to 103 ng/ml) and bound antibody was detected with rabbit anti-mouse IgG-HRP for murine IgG1 isotypes (Zymed, South San Francisco, Calif.) or HRP-labeled anti-human IgG (Jackson 109-036-088) for human IgG4 isotypes. $EC50$ values were determined and the screening results are shown in FIG. 9 and Table 2 below.
In general terms: ELISA stands for enzyme-linked immunosorbent assay.

For orientation: EC50 means the concentration needed to bring the measured effect to its halfway point. A higher EC50 goes with a need for much substance.

B1: murine anti-TLR3 mAb C1068 (antibody, V domains shown)
VH: QVQLQQPGAELVQPGTSVRLSCKASGYIFTTYWIHWVKQRPGQGLEWIGEINPNNGRINYNEKFKTKATLTVDKSSSTAYMQLSSLTSEDSAVYYCTRVGVMITTFPYWGQGTLVTVSA
VL: DIQMTQSPASLSASVGETVTITCRASGNIHNYLAWYQQKQGKSPQLLVYNAKTLADGVPSRFSGSESGTQYSLKINSLQPEDFGSYYCQHFWSTPFTFGSGTKLELK
notes: The ELISA text implies a murine IgG1 isotype (detected with anti-mouse IgG-HRP for murine IgG1 isotypes); also called parental murine mAb C1068
For the molecule B1, it took 8 ng/mL to reach a half-maximal effect (EC50).

(Values after US8093068 (Janssen / Centocor, dated 2012).)
